Laboratory results: FireProtDB (doi:10.1074/jbc.273.32.19982)

B1: DNA-binding protein HU, P0A3H0 (parent)
chain: MNKTELINAVAETSGLSKKDATKAVDAVFDSITEALRKGDKVQLIGFGNFEVRERAARKGRNPQTGEEMEIPASKVPAFKPGKALKDAVK
B2: DNA-binding protein HU 1, P08821 (parent)
chain: MNKTELINAVAEASELSKKDATKAVDSVFDTILDALKNGDKIQLIGFGNFEVRERSARKGRNPQTGEEIEIPASKVPAFKPGKALKDAVAGK

How the values were obtained:
[1] = variants of: B1; details: Geobacillus stearothermophilus, pH 7, Thermal, structure 1HUE, whole UniProt chain shown; for ddG of mutation (higher = less stable): 63.9 °C
[2] = variants of: B2; details: Bacillus subtilis (strain 168), pH 7, Thermal, CD, Sodium phosphate 5 mM, NaCl 0.2 M, reversible: yes, whole UniProt chain shown; for ddG of mutation (higher = less stable): 48.6 °C
[3] = CD, Sodium phosphate 5 mM, NaCl 0.2 M, reversible: yes

Row | Variant | ddG of mutation (higher = less stable) [1, 3] [kcal/mol] | Tm [1, 3] [°C] | change of melting temperature, mutant - wild type (higher = more stable) [1, 3] [°C] | unfolding enthalpy (van 't Hoff) [1, 3] [kcal/mol] | Tm ([1]; DSC, phosphate 0.05 M) [°C] | change of melting temperature, mutant - wild type (higher = more stable) ([1]; DSC, phosphate 0.05 M) [°C] | ddG of mutation (higher = less stable) [2] [kcal/mol] | Tm [2] [°C] | change of melting temperature, mutant - wild type (higher = more stable) [2] [°C]
1 | S31T | -0.41 | 65.8 | 1.9 | 81.1 |  |  |  |  | 
2 | V42I | 0.82 | 60.1 | -3.8 | 54.7 | 59.6 | -6.2 |  |  | 
3 | A56S | 0.13 | 63.3 | -0.6 | 83 |  |  |  |  | 
4 | M69I | 0 | 63.9 | 0 | 79.2 |  |  |  |  | 
5 | G15E |  | 54 | -9.9 |  | 55.7 | -10.1 |  |  | 
6 | A27S |  | 58.4 | -5.5 | 76.5 |  |  |  |  | 
7 | E34D |  | 61.6 | -2.3 |  | 63.5 | -2.3 |  |  | 
8 | K38N |  | 61.5 | -2.4 |  | 61.7 | -4.1 |  |  | 
9 | S27A |  |  |  |  |  |  | -0.73 | 54.2 | 5.6
10 | E15G |  |  |  |  |  |  | -1.55 | 60.4 | 11.8
11 | D34E N38K |  |  |  |  |  |  | -0.45 | 52.1 | 3.5
12 | E15G S27A D34E N38K I42V |  |  |  |  |  |  | -2.98 | 71.3 | 22.7
13 | I42V |  |  |  |  |  |  |  | 52.6 | 4
